Test results from US20220362404A1 (MACQUARIE UNIVERSITY, published 2022).
Blank lines part the entries; values can stand above or below the binder they belong to.

Columns and labels:
[1] = target: T1, recombinant His-tagged TDP-43 (full length) (UniProt Q13148 1-414); assay: microscale thermophoresis, labelled His-TDP-43, GST-cyclin domain titrated
T1 construct: In MST it was labelled with RED-tris-NTA dye on the His tag; also called His-TDP-43; recombinant TDP-43; not shown: His tag, printed as His-TDP-43
Method: Recombinant His-tagged TDP-43 (a gift from Professor Julie Atkin's laboratory) was diluted to 200 nM in PBS-T buffer (137 mM NaCl, 2.5 mM KCl, 10 mM Na2HPO4, 2 mM KH2PO4, pH 7.4; 0.05% (v/v) Tween-20). The RED-tris-NTA dye was diluted in PBS-T to 100 nM. For labelling, the recombinant protein and diluted dye were mixed in a 1:1 volume ratio and incubated for 30 minutes at room temperature. Recombinant cyclin F-GST was also diluted in PBS-T buffer prior to analysis. Concentrations of cyclin F-GST (cyclin box) ranged from 0-22 μM. Before MST measurements were carried out, samples were centrifuged for 10 minutes at 4° C. at 14,000×g. All MST measurements were performed on a NanoTemper Monolith™NT.115 instrument using standard treated capillaries at room temperature. Final dye concentration of 25 nM yielded the fluorescence intensity of around 300 counts at a LED power of 50%. Accordingly, the MST power range was between 40-60% intensity with a laser-on time of 30 s and a laser-off time of 5 s. All data were analysed by MO Affinity Analysis Software.

Flag-tagged cyclin F = target: T2, Flag-tagged cyclin F (Homo sapiens (Human), UniProt P41002 1-786); assay: co-immunoprecipitation with anti-myc from HEK293 lysate, immunoblot
T2 construct: Expressed in HEK293 cells and immunoprecipitated with anti-Flag; In the ubiquitylation assay it stood with co-immunoprecipitated Skp1, Cul1 and Rbx1; also called cyclin F-flag; Flag-cyclin F; not shown: C-terminal Flag tag
T2 sequence: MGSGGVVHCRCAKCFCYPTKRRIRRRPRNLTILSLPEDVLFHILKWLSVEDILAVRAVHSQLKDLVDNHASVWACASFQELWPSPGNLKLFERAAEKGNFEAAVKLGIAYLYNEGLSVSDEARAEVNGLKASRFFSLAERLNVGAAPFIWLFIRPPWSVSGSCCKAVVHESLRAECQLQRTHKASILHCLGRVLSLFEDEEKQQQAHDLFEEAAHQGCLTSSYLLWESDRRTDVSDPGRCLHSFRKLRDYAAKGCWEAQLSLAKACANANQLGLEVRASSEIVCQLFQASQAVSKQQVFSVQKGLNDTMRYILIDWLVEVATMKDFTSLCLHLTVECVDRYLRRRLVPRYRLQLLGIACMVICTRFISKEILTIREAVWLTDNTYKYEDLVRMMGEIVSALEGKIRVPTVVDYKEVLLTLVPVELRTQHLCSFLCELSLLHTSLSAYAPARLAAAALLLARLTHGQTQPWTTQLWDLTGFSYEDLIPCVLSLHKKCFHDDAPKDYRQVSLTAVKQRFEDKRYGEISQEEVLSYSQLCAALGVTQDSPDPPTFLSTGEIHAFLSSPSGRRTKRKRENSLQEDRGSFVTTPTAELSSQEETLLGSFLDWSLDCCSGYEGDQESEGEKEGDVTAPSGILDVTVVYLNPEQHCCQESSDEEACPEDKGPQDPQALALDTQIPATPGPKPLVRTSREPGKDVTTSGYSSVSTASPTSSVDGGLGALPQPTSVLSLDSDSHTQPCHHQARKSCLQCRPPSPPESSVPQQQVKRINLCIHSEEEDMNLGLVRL
Method: A. HEK293 cells were transfected with cyclin F-flag and TDP-43-HA. After 24 hours, cells were lysed and anti-flag antibodies or an IgG control were used to immunoprecipitate Flag-cyclin F. Eluates were analyzed by immunoblotting using antibodies recognizing cyclin F and TDP-43. B. HEK293 cells were transfected with cyclin F-flag and TDP-43-HA. At 24 hours post-transfection, cells were lysed and Flag-cyclin F was immunoprecipitated using antibodies recognizing the Flag tag. Eluates were analyzed by immunoblotting using antibodies recognizing cyclin F and phospho-TDP-43 (S409/410). C. Schematic showing the position of the RxL>AxA mutation within TDP-43. D. Cells were transfected with cyclin F and TDP-43(WT) or TDP-43(RxL>AxA). Cyclin F was immunoprecipitated from cell lysates using antibodies recognizing the Flag tag. Eluates were analyzed using anti-cyclin F and anti-TDP-43. E. Schematic showing the TDP-43 fragments used for immunoprecipitations. […] Eluates were analyzed by immunoblotting using antibodies recognizing cyclin F and myc.
In order to determine whether cyclin F interacts with TDP-43 through the typical RxL motif present in all known cyclin F substrates, constructs expressing wild-type TDP-43 or variant TDP-43 (RxL>AxA) were transfected into HEK293 cells (FIG. 1C). After 24 hours, the cells were lysed and Flag-cyclin F was immunoprecipitated and analyzed for TDP-43 by immunoblotting. […]

binding result [1]: binds
B1: GST-cyclin domain of cyclin F (aa 302-497) (other)
chain: QKGLNDTMRYILIDWLVEVATMKDFTSLCLHLTVECVDRYLRRRLVPRYRLQLLGIACMVICTRFISKEILTIREAVWLTDNTYKYEDLVRMMGEIVSALEGKIRVPTVVDYKEVLLTLVPVELRTQHLCSFLCELSLLHTSLSAYAPARLAAAALLLARLTHGQTQPWTTQLWDLTGFSYEDLIPCVLSLHKKCF
notes: Made in E. coli from pGEX5; also called cyclin box of cyclin F; cyclin F-GST (cyclin box); not shown: glutathione S-transferase (GST) tag of the pGEX5 vector

binding result (Flag-tagged cyclin F): no binding
B2: Myc-tagged C-terminal fragment of TDP-43 (167-414) (other, UniProt Q13148 167-414, looked up)
chain: MIDGRWCDCKLPNSKQSQDEPLRSRKVFVGRCTEDMTEDELREFFSQYGDVMDVFIPKPFRAFAFVTFADDQIAQSLCGEDLIIKGISVHISNAEPKHNSNRQLERSGRFGGNPGGFGNQGGFGNSRGGGAGLGNNQGSNMGGGMNFGAFSINPAMMAAAQAALQSSWGMMGMLASQQNQSGPSGNNQNQGNMQREPNQAFGSGNNSYSGSNSGAAIGWGSASNAGSGSGFNGGFGSSMDSKSSGWGM
notes: Over-expressed in HEK293 cells with Flag-cyclin F; also called myc-TDP-43; not shown: myc tag, printed as myc-TDP-43
